Values belong to the binder of their own block, whether it stands above or below them. Where no end group is shown, it is not given here.
Assays:
[1] = biological target: T1, biotinylated Aβ1-40 peptide (biotinylated (N-biotinylated in Example 7)); assay: SPR, Fab over N-biotinylated peptide on SA chip
T1 construct: captured on streptavidin (SA) chip; also called Biotinylated Aβ peptide 1-40; Aβ1-40 on SA chip
Protocol: (§1) Affinities of 7G10 antibody were determined using BIAcore3000® as described previously in Example 1. N-biotinylated Aβ1-40, 1-42, and 1-43 were captured on SA chip. Threefold dilution series of anti-Aβ1-40 Fabs, anti-Aβ1-42 Fabs, and anti-Aβ1-43 Fabs respectively, were injected starting with a ⅙ dilution of the 7G10 stock listed above. The chip was regenerated with an 18 sec pulse of 6% EtOH+6 mM NaOH.

[2] = biological target: T2, N-biotinylated Aβ1-43 peptide (N-biotinylated); assay: SPR, Fab over N-biotinylated peptide on SA chip
T2 construct: captured on SA chip
Protocol: as §1

[3] = biological target: T3, biotinylated Aβ1-42 peptide (biotinylated (N-biotinylated in Example 7)); assay: SPR, Fab over N-biotinylated peptide on SA chip
T3 construct: captured on streptavidin chip; also called N-biotinylated Aβ1-42
Protocol: as §1

[4] = biological target: Aβ1-36 peptide; assay: SPR, peptide flowed over 6G mAb on CM5 chip; reference Aβ1-40
[5] = biological target: T4, Aβ22-35 peptide; assay: as above
T4 peptide: EDVGSNKGAIIGLM

[6] = biological target: T5, Aβ28-40 peptide; assay: as above
T5 peptide: KGAIIGLMVGGVV

[7] = biological target: Aβ1-39 peptide; assay: as above
[8] = biological target: Aβ1-38 peptide; assay: as above
[9] = biological target: T6, Aβ28-40-NH2 peptide (carboxy-terminal amidated); assay: as above
T6 peptide: KGAIIGLMVGGVV-NH2

[10] = biological target: T7, Aβ1-42 peptide; assay: as above
T7 construct: also called 1-42 (WT)

[11] = biological target: T8, Aβ17-40 peptide; assay: as above
T8 peptide: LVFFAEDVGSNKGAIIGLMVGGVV

[12] = biological target: T9, Aβ28-42 peptide; assay: as above
T9 peptide: KGAIIGLMVGGVVIA

[13] = biological target: T10, Aβ17-42 peptide; assay: as above
T10 peptide: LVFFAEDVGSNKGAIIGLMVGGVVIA

[14] = biological target: Aβ1-37 peptide; assay: as above
[15] = biological target: T11, Aβ1-40 peptide; assay: SPR, peptide flowed over 6G mAb on CM5 chip; the reference itself
T11 construct: synthetic peptide, not biotinylated; also called 1-40 (WT); beta amyloid 1-40

[16] = biological target: T12, Aβ1-43 peptide; assay: SPR, peptide flowed over 6G mAb on CM5 chip
T12 construct: also called 1-43 (WT)

[17] = biological target: Aβ1-36 peptide; assay: SPR, peptide flowed over 6G mAb on CM5 chip
[18] = biological target: T11, Aβ1-40 peptide; assay: SPR, peptide flowed over 6G mAb on CM5 chip
[19] = biological target: T4, Aβ22-35 peptide; assay: SPR, peptide flowed over 6G mAb on CM5 chip
[20] = biological target: T5, Aβ28-40 peptide; assay: SPR, peptide flowed over 6G mAb on CM5 chip
[21] = biological target: Aβ1-39 peptide; assay: SPR, peptide flowed over 6G mAb on CM5 chip
[22] = biological target: Aβ1-38 peptide; assay: SPR, peptide flowed over 6G mAb on CM5 chip
[23] = biological target: T6, Aβ28-40-NH2 peptide (carboxy-terminal …); assay: SPR, peptide flowed over 6G mAb on CM5 chip
[24] = biological target: T7, Aβ1-42 peptide; assay: SPR, peptide flowed over 6G mAb on CM5 chip
[25] = biological target: T8, Aβ17-40 peptide; assay: SPR, peptide flowed over 6G mAb on CM5 chip
[26] = biological target: Aβ1-28 peptide; assay: SPR, peptide flowed over 6G mAb on CM5 chip
[27] = biological target: T9, Aβ28-42 peptide; assay: SPR, peptide flowed over 6G mAb on CM5 chip
[28] = biological target: T10, Aβ17-42 peptide; assay: SPR, peptide flowed over 6G mAb on CM5 chip
[29] = biological target: Aβ1-37 peptide; assay: SPR, peptide flowed over 6G mAb on CM5 chip
[30] = biological target: T13, Aβ1-16 peptide; assay: ELISA on immobilized Aβ peptides
T13 peptide: DAEFRHDSGYEVHHQK
Protocol: (§2) To determine the epitope on Aβ peptide that is recognized by antibody 6G, ELISA binding analysis was used. Various Aβ peptides (Global Peptide Services, CO) was immobilized on a ELISA plate. The binding of 6G full antibody (at 20 nM) to the immobilized Aβ was determined by ELISA as described above. […] Thus, antibody 6G binds to the C-terminus of various truncated Aβ peptide, for example, 22-35, 1-38, 1-40, 1-42, and 1-43.

[31] = biological target: T14, Aβ33-40 peptide; assay: ELISA on immobilized Aβ peptides
T14 construct: also called C-terminal peptide (33-40) of Aβ1-40
T14 peptide: GLMVGGVV
Protocol: as §2

[32] = biological target: T15, biotinylated Aβ 27-41 peptide with C-terminal glycine (also: biotinylated, site not given here); assay: ELISA on biotinylated peptides on streptavidin plates
T15 peptide: NKGAIIGLMVGGVVIG
Protocol: (§3) ELISA was used for measuring binding of antibody 6G and variants to biotinylated Aβ peptides. NUNC maxisorp plates were coated with 6 ug/ml of streptavidin (Pierce, 21122) in PBS pH 7.4 for more than 1 h at 4° C. Plates were blocked with 1% BSA in PBS buffer pH 7.4. After washing, biotinylated Aβ peptides in PBS pH 7.4 were incubated 1 hour at room temperature. Primary antibody (from cell supernatants, serum containing anti-Aβ antibody, or purified full antibody or Fabs at desired dilution) was incubated with the immobilized Aβ peptides for 1 h at room temperature. After washing, plates were incubated with secondary antibody, a HRP conjugated goat anti-human kappa chain antibody (MP Biomedicals, 55233) at 1:5000 dilution. After washing, bound secondary antibody was measured by adding TMB substrate (KPL, 50-76-02, 50-65-02). HRP reaction was stopped by adding 1M phosphoric acid and absorbance at 450 nm was measured.
(§4) Epitope mapping of antibody 6G was performed by ELISA assay. Biotinylated 15-mer or 10-mer of various Aβ peptides (these peptides have glycine added to the C-terminal end) were immobilized on streptavidin coated plates. Antibody 6G (from 2.5 ug/ml to 10 ug/ml) was incubated with the immobilized peptides and binding was measured as described above.

[33] = biological target: T16, biotinylated Aβ 24-33 peptide with C-terminal glycine (also: biotinylated, site not given here); assay: as above
T16 peptide: VGSNKGAIIGG
Protocol: as §3, §4

[34] = biological target: T17, biotinylated Aβ 19-33 peptide with C-terminal glycine (also: biotinylated, site not given here); assay: as above
T17 peptide: FFAEDVGSNKGAIIGG
Protocol: as §3, §4

[35] = biological target: T18, biotinylated Aβ 26-35 peptide with C-terminal glycine (also: biotinylated, site not given here); assay: as above
T18 peptide: SNKGAIIGLMG
Protocol: as §3, §4

[36] = biological target: T19, biotinylated Aβ 26-40 peptide with C-terminal glycine (also: biotinylated, site not given here); assay: as above
T19 peptide: SNKGAIIGLMVGGVVG
Protocol: as §3, §4

Aβ1-36 peptide, sequence (peptide, as listed by the source): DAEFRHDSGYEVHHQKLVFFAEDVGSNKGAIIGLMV
Aβ1-38 peptide, sequence (peptide, as listed by the source): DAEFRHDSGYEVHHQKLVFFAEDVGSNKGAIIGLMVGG
Aβ1-39 peptide, sequence (peptide, as listed by the source): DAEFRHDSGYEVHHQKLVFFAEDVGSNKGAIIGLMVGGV
Aβ1-37 peptide, sequence (peptide, as listed by the source): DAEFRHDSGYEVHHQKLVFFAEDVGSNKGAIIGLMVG
Aβ1-28 peptide, sequence (peptide, as listed by the source): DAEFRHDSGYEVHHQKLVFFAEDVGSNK
T12 sequence (peptide, as listed by the source): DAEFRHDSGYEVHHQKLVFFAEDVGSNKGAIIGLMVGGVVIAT

binding result [1]: no binding
Kd [2]: 41 nM
Kd [3]: 37.6 nM
B1: murine antibody 7G10 (Fab) (Fab, V domains shown)
VH: EVKLVESGGDLVKPGGSLKLSCAASGFTFSTYAMSWIRQTPEKRLEWVASIGNSSRTYYPDSVKGRFTISRDNAGSILYLQMSSLRSEDTAIYYCARGEDGNYAWFTYWGQGTQVTVS
VL: DIVLTQSPATLSVTPGDSVSLSCRASQSVKNNLHWYQQKSHESPRLLIKYTFQSMSGIPSRFSGSGSGTDFTLIINSVETEDFGMYFCQQSNRWPLTFGAGTKLEL
notes: Fab was injected in the Biacore assay; also called m7G10

koff Aβ peptide/koff Aβ1-40 (fold loss of affinity) [4]: 155 fold
koff Aβ peptide/koff Aβ1-40 (fold loss of affinity) [5]: 216 fold
koff Aβ peptide/koff Aβ1-40 (fold loss of affinity) [6]: 4.8 fold
koff Aβ peptide/koff Aβ1-40 (fold loss of affinity) [7]: 60 fold
koff Aβ peptide/koff Aβ1-40 (fold loss of affinity) [8]: 70.4 fold
koff Aβ peptide/koff Aβ1-40 (fold loss of affinity) [9]: 27.4 fold
koff Aβ peptide/koff Aβ1-40 (fold loss of affinity) [10]: 14.4 fold
koff Aβ peptide/koff Aβ1-40 (fold loss of affinity) [11]: 1.6 fold
koff Aβ peptide/koff Aβ1-40 (fold loss of affinity) [12]: 25.5 fold
koff Aβ peptide/koff Aβ1-40 (fold loss of affinity) [13]: 352 fold
koff Aβ peptide/koff Aβ1-40 (fold loss of affinity) [14]: 113 fold
koff Aβ peptide/koff Aβ1-40 (fold loss of affinity) [15]: 1 fold
binding result [16]: binds
koff [17]: 0.0205 s⁻¹
koff [18]: 0.000132 s⁻¹
koff [19]: 0.0285 s⁻¹
koff [20]: 0.00064 s⁻¹
koff [21]: 0.00792 s⁻¹
koff [22]: 0.0093 s⁻¹
koff [23]: 0.00362 s⁻¹
koff [24]: 0.0019 s⁻¹
koff [25]: 0.000215 s⁻¹
binding result [26]: no binding
koff [27]: 0.00337 s⁻¹
koff [28]: 0.0465 s⁻¹
koff [29]: 0.0149 s⁻¹
binding result [30]: no binding (tested: 20 nM)
binding result [31]: no binding (tested: 20 nM)
B2: antibody 6G (full monoclonal antibody) (antibody, human IgG2, kappa, V domains shown)
VH: QVQLVQSGAEVKKPGASVKVSCKASGYTFTTYAIHWVRQAPGQGLEWMGFTSPYSGVSNYNQKFKGRVTMTRDTSTSTVYMELSSLRSEDTAVYYCARFDNYDRGYVRDYWGQGTLVTVSS
VL: DIVMTQSPDSLAVSLGERATINCRASESVDNDRISFLNWYQQKPGQPPKLLIYAATKQGTGVPDRFSGSGSGTDFTLTISSLQAEDVAVYYCQQSKEFPWSFGGGTKVEIKR
notes: human IgG2a constant region with A330P331 to S330S331; human kappa light chain; also called 6G full antibody; 6G monoclonal antibody
binding result [32]: no binding (tested: 2.5 ug/ml to 10 ug/ml)
binding result [33]: no binding (tested: 2.5 ug/ml to 10 ug/ml)
binding result [34]: no binding (tested: 2.5 ug/ml to 10 ug/ml)
binding result [35]: no binding (tested: 2.5 ug/ml to 10 ug/ml)
binding result [36]: no binding (tested: 2.5 ug/ml to 10 ug/ml)

Source: US20090022728A1 (RINAT NEUROSCIENCE, published 2009)
